Read-outs that look alike come from different tables or passages of the source.
T1: ABI1 (Arabidopsis thaliana, UniProt P49597+Q8H1R0)
T1 sequence (P49597 1-434): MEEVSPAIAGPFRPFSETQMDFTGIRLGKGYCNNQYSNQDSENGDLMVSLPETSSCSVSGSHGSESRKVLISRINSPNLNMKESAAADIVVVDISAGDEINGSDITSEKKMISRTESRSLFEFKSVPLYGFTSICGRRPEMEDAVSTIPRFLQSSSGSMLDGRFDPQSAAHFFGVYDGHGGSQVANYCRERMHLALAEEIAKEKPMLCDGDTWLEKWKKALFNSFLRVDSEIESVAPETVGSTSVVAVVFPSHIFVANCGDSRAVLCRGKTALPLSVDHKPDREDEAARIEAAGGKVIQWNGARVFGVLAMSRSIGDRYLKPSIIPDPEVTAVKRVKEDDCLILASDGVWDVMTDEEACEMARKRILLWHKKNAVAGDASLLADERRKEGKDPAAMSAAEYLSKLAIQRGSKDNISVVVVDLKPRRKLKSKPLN
T1 sequence (Q8H1R0 1-183): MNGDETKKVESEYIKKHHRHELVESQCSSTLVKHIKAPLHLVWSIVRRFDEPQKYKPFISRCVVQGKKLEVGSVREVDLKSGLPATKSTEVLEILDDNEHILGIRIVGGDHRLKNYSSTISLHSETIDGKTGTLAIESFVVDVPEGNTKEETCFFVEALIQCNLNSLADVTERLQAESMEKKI

B1: PYL10: Arabidopsis thaliana PYL family protein PYL10, AT4G27920 (protein, listed as Arabidopsis thaliana)
chain: MNGDETKKVESEYIKKHHRHELVESQCSSTLVKHIKAPLHLVWSIVRRFDEPQKYKPFISRCVVQGKKLEVGSVREVDLKSGLPATKSTEVLEILDDNEHILGIRIVGGDHRLKNYSSTISLHSETIDGKTGTLAIESFVVDVPEGNTKEETCFFVEALIQCNLNSLADVTERLQAESMEKKI

What was measured:
[1] = system: ABI1; test: Phosphatase activity assay (pNPP) with purified PP2Cs and PYLs; type: biochemical, Arabidopsis thaliana; details: in the presence of 10 μM ABA; ABI1 and PYLs 0.3 μM
Method: The inhibition by PYL13 is ABA-independent, whereas the inhibition by PYR1 and PYL2 is ABA-induced (FIG. 4B). […] The phosphatase activities of PP2CA, ABI1, and ABI2 were measured in the absence or presence of ABA (1.25 μM), and with or without PYLs. The concentration of PP2Cs and PYLs was 0.3 μM. The A405 value of reaction without PP2C was set as 0% and that of the reaction with PP2C but without ABA and PYLs was set as 100%. Error bars indicate s.e.m. (n=6 for PP2CA and ABI2, and n=3 for ABI1).
To test the functional significance of potential heterodimer formation between PYL13 and other PYLs, the abilities of PYL1 and PYL2 and the protein complexes PYL13-PYL1 and PYL13-PYL2 to inhibit the phosphatase activity of ABI1 were compared using purified recombinant proteins and the synthetic phosphatase substrate pNPP. […] The phosphatase activity of ABI1 was measured (using pNPP) in the absence or presence of 10 μM ABA, with or without PYLs, and with PYL13-PYL dimers. The concentration of ABI1 and PYLs was 0.3 μM. The A405 value of reaction without ABI1 was set as 0% and that of the reaction with ABI1 but without ABA and PYLs was set as 100%. Error bars indicate s.e.m. (n=6). In the presence of 10 μM ABA, ABI1 phosphatase activity was reduced to 67±6% by PYL1 but only to 88±8% by PYL13-PYL1. In the presence of 10 μM ABA, ABI1 phosphatase activity was reduced to 50±3% by PYL2 but only to 78±10% by PYL13-PYL2.
Phosphatase activity was measured using the colorimetric substrate p-nitrophenyl phosphate (pNPP, SIGMA). Reactions were performed in a reaction buffer containing 50 mM Tris-HCl, pH 7.5, 25 mM Mg(OAc)2, 2 mM MnCl2, 0.5 mM EGTA, 0.5% β-mercaptoethanol, and 0.5% BSA. ABA and PYLs were added as indicated. The concentration of PP2Cs and PYLs was 0.3 μM. Reactions were initiated by the addition of pNPP to a final concentration of 50 mM. The hydrolysis of pNPP was measured by following the absorbance at 405 nm (A405). Because His-PYL13 is difficult to purify, is prone to degradation, and rapidly loses activity, newly purified PYL13 was used for the phosphatase activity assay.

[2] = molecular target: T1, ABI1; details: read-out: dissociation constant (Kd) of PYL10-ABI1 interaction, cited from earlier work

Molecule | ABI1 phosphatase activity reduced to [1] [%] | Kd ([2]; with ABA) [nM] | Kd ([2]; without ABA) [nM]
PYL13-PYL1: protein complex (heterodimer) of purified recombinant PYL13 and PYL1 | 88±8 | – | –
PYL1: Arabidopsis thaliana PYL family ABA receptor protein PYL1, AT5G46790 | 67±6 | – | –
PYL13-PYL2: protein complex (heterodimer) of purified recombinant PYL13 and PYL2 | 78±10 | – | –
B1 | – | 20 | 1200
